Results on 17 molecules are retold here after patent publication US20230203202A1 (DRAGONFLY THERAPEUTICS, published 2023).

Where a chain is given by its changes, count along the chain named. Where two headings read alike, the source gives them in different places.

Experiment [1] deals with T1, human 5T4 on the cell surface (human, UniProt Q13641 32-420).
T1 construct: whole, on cells; also called h5T4; TPBG
T1 sequence (looked up): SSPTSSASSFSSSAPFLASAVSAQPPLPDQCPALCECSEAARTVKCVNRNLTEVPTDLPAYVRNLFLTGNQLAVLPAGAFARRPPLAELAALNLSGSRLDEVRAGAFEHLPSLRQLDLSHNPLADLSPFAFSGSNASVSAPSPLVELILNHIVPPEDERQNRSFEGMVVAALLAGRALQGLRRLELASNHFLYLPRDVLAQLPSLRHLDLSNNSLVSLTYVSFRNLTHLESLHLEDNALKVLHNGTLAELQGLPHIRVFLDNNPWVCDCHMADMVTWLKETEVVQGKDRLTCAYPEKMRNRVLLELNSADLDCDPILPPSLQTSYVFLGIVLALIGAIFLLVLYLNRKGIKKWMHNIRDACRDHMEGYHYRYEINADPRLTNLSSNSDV
Nature of the experiment: cell binding assay on 5T4-expressing tumor cells (cell line not given).

Experiment [2] deals with T1, human 5T4 on the cell surface. As to the kind of experiment: flow cytometry on H1975 cells, FOB.
For experiment [3] the target is unchanged. As to the kind of experiment: flow cytometry on H1975 cells, FOB. This is another data set of the same source. Background: Flow cytometry measures light scatter and fluorescence of single cells or particles in a stream.
The target is the same in experiment [4]. Nature of the experiment: cell-based or functional assay.
For experiment [5] the target is unchanged. Nature of the experiment: flow cytometry on 5T4+ H1975 cells.

B1: AB1882-TriNKET® (bispecific antibody, human IgG1, kappa)
chain: DIQLTQSPSSLSASVGDRVTITCRASQSVTTSNYNYMHWFQQKPGKAPKLLIKFASNLESGVPSRFSGSGSGTDFTLTISSLQPEDFATYYCQHSWEIPWTFGCGTKVEIKGGGGSGGGGSGGGGSGGGGSEVQLVESGGGLVQPGGSLRLSCAASRFTFSDFGMHWVRQAPGKCLEWVSYISSGSSTIYYADTVKGRFTISRDNAKNSLYLQMNSLRAEDTAVYYCASSQSYYRGTLDYWGQGTTVTVSSGSDKTHTCPPCPAPELLGGPSVFLFPPKPKDTLMISRTPEVTCVVVDVSHEDPEVKFNWYVDGVEVHNAKTKPREEQYNSTYRVVSVLTVLHQDWLNGKEYKCKVSNKALPAPIEKTISKAKGQPREPRVYTLPPCRDELTKNQVSLTCLVKGFYPSDIAVEWESNGQPENNYKTTPPVLVSDGSFTLYSKLTVDKSRWQQGNVFSCSVMHEALHNHYTQKSLSLSPG
heavy: EVQLVESGGGLVKPGGSLRLSCAASGFTFSSYSMNWVRQAPGKGLEWVSSISSSSSYIYYADSVKGRFTISRDNAKNSLYLQMNSLRAEDTAVYYCARGAPIGAAAGWFDPWGQGTLVTVSSASTKGPSVFPLAPSSKSTSGGTAALGCLVKDYFPEPVTVSWNSGALTSGVHTFPAVLQSSGLYSLSSVVTVPSSSLGTQTYICNVNHKPSNTKVDKKVEPKSCDKTHTCPPCPAPELLGGPSVFLFPPKPKDTLMISRTPEVTCVVVDVSHEDPEVKFNWYVDGVEVHNAKTKPREEQYNSTYRVVSVLTVLHQDWLNGKEYKCKVSNKALPAPIEKTISKAKGQPREPQVCTLPPSRDELTENQVSLTCLVKGFYPSDIAVEWESNGQPENNYKTTPPVLDSDGSFFLYSWLTVDKSRWQQGNVFSCSVMHEALHNHYTQKSLSLSPG
light: DIQMTQSPSSVSASVGDRVTITCRASQGISSWLAWYQQKPGKAPKLLIYAASSLQSGVPSRFSGSGSGTDFTLTISSLQPEDFATYYCQQGVSFPRTFGGGTKVEIKRTVAAPSVFIFPPSDEQLKSGTASVVCLLNNFYPREAKVQWKVDNALQSGNSQESVTEQDSKDSTYSLSSTLTLSKADYEKHKVYACEVTHQGLSSPVTKSFNRGEC
notes: F3′ format; also called AB1882-VL-VH TriNKET®; 10F10-IGHV3-48*01 BM1
In general, EC50 refers to the midpoint of the concentration-response curve. A lower EC50 goes with higher potency in that assay. As to B1, in experiment [1], the midpoint of the response, the EC50, lay at 8.55 nM and the “Max Fold Over Background (FOB)” value is 71.8 fold over background.

B2: AB1885-TriNKET® (bispecific antibody, human IgG1, kappa)
chain: B1 chain with E132Q, Q144K, V179I, S180A
heavy: B1 heavy
light: B1 light
notes: F3′ format; also called AB1885-VL-VH TriNKET®; 10F10-IGHV3-11*01 BM2
For the molecule B2, in experiment [1], the concentration for a half-maximal effect (EC50) stood at 5.37 nM and the “Max Fold Over Background (FOB)” value stood at 68 fold over background.

B3: AB1886-TriNKET® (bispecific antibody, human IgG1, kappa)
chain: B1 chain with Q144K, V168I
heavy: B1 heavy
light: B1 light
notes: F3′ format; also called AB1886-VL-VH TriNKET®; 10F10-IGHV3-11*01 BM1
Take B3: in experiment [1], a half-maximal response (EC50) required 5.65 nM and the “Max Fold Over Background (FOB)” value came out at 73.5 fold over background.

B4: AB1884-TriNKET® (bispecific antibody, human IgG1, kappa)
chain: B1 chain with V179I, S180A
heavy: B1 heavy
light: B1 light
notes: F3′ format; also called AB1884-VL-VH TriNKET®; 10F10-IGHV3-48*01 BM2
For B4, in experiment [1], the midpoint of the response, the EC50, lay at 6.08 nM and the “Max Fold Over Background (FOB)” value amounted to 70.5 fold over background.

B5: AB1887-TriNKET® (bispecific antibody, human IgG1, kappa)
chain: B1 chain with Q144K, V179I, S180A
heavy: B1 heavy
light: B1 light
notes: F3′ format; also called AB1887-VL-VH TriNKET®; 10F10-IGHV3-21*05 BM2
Take B5: in experiment [1], the EC50 amounted to 10.2 nM and the “Max Fold Over Background (FOB)” value is 75 fold over background.

B6: AB1892-TriNKET® (bispecific antibody, human IgG1, kappa)
chain: B1 chain with V136L, A206S, S209T
heavy: B1 heavy
light: B1 light
notes: F3′ format; also called AB1892-VL-VH TriNKET®; 10F10-IGHV3-23*03 BM1
B6: in experiment [1], the EC50 turned out to be 4.21 nM and the “Max Fold Over Background (FOB)” value is 60 fold over background.

B7: AB1011 (antibody, V domains shown)
VH: EVQLVESGGGLVKPGGSLRLSCAASGFTFSDYGMHWVRQAPGKGLEWVSYISSGSSTFYYADTVKGRFTISRDNAKNSLYLQMNSLRAEDTAVYYCGSSQSYYRGTMDYWGQGTTVTVSS
VL: DIQLTQSPSSLSASVGDRVTITCRASQGVSTSTYTYMHWFQQKPGKAPKLLIKFASNLESGVPSRFSGSGSGTDFTLTISSLQPEDFATYYCQHSWEIPWTFGGGTKVEIK
notes: member of the group m33
B7: the binding result in experiment [2] was “binds”.

B8: AB1013 (antibody, V domains shown)
VH: B7 VH
VL: B7 VL with M37V
notes: member of the group m33
Consider B8, for which the binding result in experiment [2] is given as “binds”.

B9: AB1015 (antibody, V domains shown)
VH: B7 VH with M107I
VL: B7 VL with M37L
notes: member of the group m33
Turning to B9, the binding result in experiment [2] is reported as “binds”.

B10: AB1012 (antibody, V domains shown)
VH: B7 VH
VL: B7 VL with M37L
notes: member of the group m33
As for B10, the binding result in experiment [2] is “binds”.

B11: AB1018 (antibody, V domains shown)
VH: B7 VH with A23E, V48L, S49A
VL: B7 VL with M37L
notes: member of the group m33
In the case of B11, in experiment [3], the binding result is reported as “binds”.

B12: AB1017 (antibody, V domains shown)
VH: B7 VH with A23E, V48L, S49A
VL: B7 VL
notes: member of the group m33
Take B12: in experiment [3], the binding result is “binds”.

B13: AB1014 (antibody, V domains shown)
VH: B7 VH with M107I
VL: B7 VL
notes: member of the group m33
B13: the binding result in experiment [2] is on record as “binds”.

B14: AB1016 (antibody, V domains shown)
VH: B7 VH with M107I
VL: B7 VL with M37V
notes: member of the group m33
In the case of B14, the binding result in experiment [2] is on record as “binds”.

B15: AB1019 (antibody, V domains shown)
VH: B7 VH with A23E, V48L, S49A
VL: B7 VL with M37V
notes: member of the group m33
For the molecule B15, in experiment [3], the binding result is on record as “binds”.

B16: 10F10 multispecific binding protein (F0) (bispecific antibody, V domains shown)
VH: EVQLQESGGGLVKPGGSRRLSCAASRFTFSDFGMHWVRQAPEKGLEWIAYISSGSSTIYYADTVKGRFTISRDNAKNTLFLQMTSLRSEDTAMYYCASSQSYYRGTLDYWGQGTSVTVSS
VL: DIVLTQSPASLAVTLGQRATISCRASQSVTTSNYNYMHWFHQKPGQPPKLLIKFASNLESGVPARFSGSGSGTDFTLNIHPVEEEDIATYYCQHSWEIPWTFGGGTKLEIK
As for B16, the “lysis of H1975 cells by KHYG-CD16V cells, EC50” value in experiment [4] came out at 0.059 nM. For the same molecule, in experiment [5], the EC50 is 3.4 nM and the “Max (FOB)” value stood at 17.9 fold over background.

B17: 8E06 multispecific binding protein (F0) (bispecific antibody, V domains shown)
VH: EVQLQESGAEMVRPGASVKLSCKASGYTFTSYWMHWVKQRPGQGLEWIGKIDSSDSKTQYNQKFKDKATLTVDKSSITVYMELNSLTSEDSAVYYCARGGYLWFAYWGQGTLVTVSA
VL: B16 VL with L4M, T14S, T30S, N33T, N35S, F40Y, H41Q, P47S, K53T, F54Y
notes: also called 08E06
Regarding B17, the “lysis of H1975 cells by KHYG-CD16V cells, EC50” value in experiment [4] was found to be 0.51 nM. The same molecule returned a half-maximal effective concentration (EC50) in experiment [5] of more than 12 nM.
